Among the data in article PMC5931518, “Architecture of the U6 snRNP reveals specific recognition of 3′-end processed U6 snRNA” are Kd values, retold here.

What all share (experiment): fluorescence polarization; FP: 50 mM KCl or as listed 100 mM KCl in both 2x buffers, HEPES (10 mM acid + 10 mM Na salt), 10% glycerol, 1 mM TCEP, tRNA, heparin, BSA, 0.3 nM FAM-RNA; EMSA: 100 mM KCl, 20% sucrose, 20 mM bis-tris/10 mM HCl pH ~6.5, 1 mM EDTA, 1 mM TCEP, 0.01% Triton X-100, tRNA, heparin, BSA, room temperature, gel at 4 C
(Polarisation of emitted light reports the rotation of a fluorescent probe.)

For one data set, the target named is T1, Lsm2-8 Lsm2-K20E (Saccharomyces cerevisiae, UniProt P38203;P57743;P40070;P40089;Q06406;P53905;P47093 …, K20E).
T1 sequence 1: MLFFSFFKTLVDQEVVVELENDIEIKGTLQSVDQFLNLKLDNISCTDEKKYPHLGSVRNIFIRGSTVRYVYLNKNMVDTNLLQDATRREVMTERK
T1 sequence 2: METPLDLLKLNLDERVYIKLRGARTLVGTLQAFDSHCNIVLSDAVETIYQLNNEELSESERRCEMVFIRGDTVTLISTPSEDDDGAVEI
T1 sequence 3: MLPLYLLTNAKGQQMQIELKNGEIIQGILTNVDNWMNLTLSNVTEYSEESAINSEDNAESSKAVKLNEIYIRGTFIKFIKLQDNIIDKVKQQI
T1 sequence 4: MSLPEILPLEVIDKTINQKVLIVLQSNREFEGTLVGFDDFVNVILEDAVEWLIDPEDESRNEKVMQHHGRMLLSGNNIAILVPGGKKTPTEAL
T1 sequence 5: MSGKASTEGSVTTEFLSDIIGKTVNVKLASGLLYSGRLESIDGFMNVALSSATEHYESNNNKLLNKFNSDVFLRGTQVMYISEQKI
T1 sequence 6: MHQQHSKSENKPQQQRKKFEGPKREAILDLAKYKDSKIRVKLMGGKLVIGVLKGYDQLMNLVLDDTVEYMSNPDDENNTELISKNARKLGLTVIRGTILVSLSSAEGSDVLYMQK
T1 sequence 7: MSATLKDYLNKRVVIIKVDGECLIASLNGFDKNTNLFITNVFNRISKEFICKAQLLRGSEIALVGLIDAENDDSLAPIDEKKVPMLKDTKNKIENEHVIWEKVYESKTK
The conditions noted are these: protein: recombinant; tags: as P1; copies: 1;1;1;1;1;1;1; label: 5'-FAM; single strand.

The target in a further data set is T2, Lsm2-8 Lsm8-delC (Saccharomyces cerevisiae, UniProt P38203;P57743;P40070;P40089;Q06406;P53905;P47093 …).
T2 sequence 1: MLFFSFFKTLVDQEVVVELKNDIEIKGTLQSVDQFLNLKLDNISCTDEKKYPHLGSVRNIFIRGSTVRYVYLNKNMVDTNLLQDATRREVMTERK
T2 sequence 2: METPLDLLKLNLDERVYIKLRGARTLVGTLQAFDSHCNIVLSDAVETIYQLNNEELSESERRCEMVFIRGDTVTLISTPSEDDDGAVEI
T2 sequence 3: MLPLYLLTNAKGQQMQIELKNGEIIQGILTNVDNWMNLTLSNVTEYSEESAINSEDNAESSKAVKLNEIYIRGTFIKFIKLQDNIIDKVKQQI
T2 sequence 4: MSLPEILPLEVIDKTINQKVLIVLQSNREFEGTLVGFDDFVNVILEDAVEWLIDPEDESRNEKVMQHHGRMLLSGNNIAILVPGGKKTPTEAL
T2 sequence 5: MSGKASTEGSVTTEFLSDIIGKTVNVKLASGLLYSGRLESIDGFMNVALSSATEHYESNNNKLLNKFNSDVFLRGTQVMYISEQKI
T2 sequence 6: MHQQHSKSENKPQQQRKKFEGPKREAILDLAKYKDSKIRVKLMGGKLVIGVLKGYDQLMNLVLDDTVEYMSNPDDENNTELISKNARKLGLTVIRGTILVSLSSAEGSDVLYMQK
T2 sequence 7: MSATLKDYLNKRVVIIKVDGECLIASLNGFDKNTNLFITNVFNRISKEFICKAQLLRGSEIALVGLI
The conditions noted are these: protein: recombinant; tags: as P1; copies: 1;1;1;1;1;1;1; label: 5'-FAM; single strand.

The next data set deals with T3, Lsm2-8 construct 2 (WT) (Saccharomyces cerevisiae, UniProt P38203;P57743;P40070;P40089;Q06406;P53905;P47093 …).
T3 sequence 1: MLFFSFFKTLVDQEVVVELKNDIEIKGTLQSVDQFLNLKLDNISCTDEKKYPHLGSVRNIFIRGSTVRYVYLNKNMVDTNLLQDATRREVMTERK
T3 sequence 2: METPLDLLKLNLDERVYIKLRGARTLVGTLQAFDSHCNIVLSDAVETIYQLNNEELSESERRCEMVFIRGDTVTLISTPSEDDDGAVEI
T3 sequence 3: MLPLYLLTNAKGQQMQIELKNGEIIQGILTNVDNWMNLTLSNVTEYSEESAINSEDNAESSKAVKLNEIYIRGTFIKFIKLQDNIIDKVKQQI
T3 sequence 4: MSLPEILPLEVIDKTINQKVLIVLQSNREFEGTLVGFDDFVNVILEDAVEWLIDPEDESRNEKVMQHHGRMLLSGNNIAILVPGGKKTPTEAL
T3 sequence 5: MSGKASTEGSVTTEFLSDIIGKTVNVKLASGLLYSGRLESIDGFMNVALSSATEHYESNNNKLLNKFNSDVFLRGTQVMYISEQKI
T3 sequence 6: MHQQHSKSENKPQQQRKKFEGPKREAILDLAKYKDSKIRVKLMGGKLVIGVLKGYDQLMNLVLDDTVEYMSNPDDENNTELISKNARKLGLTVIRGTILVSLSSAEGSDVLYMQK
T3 sequence 7: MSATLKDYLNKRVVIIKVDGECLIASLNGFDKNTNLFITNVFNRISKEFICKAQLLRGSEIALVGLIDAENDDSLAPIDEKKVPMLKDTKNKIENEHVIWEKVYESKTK
The conditions noted are these: protein: recombinant; tags: Lsm8 C-terminal His6 (non-cleavable); Lsm3 C-terminal StrepII (non-cleavable); MBP on Lsm6 (TEV-labile); copies: 1;1;1;1;1;1;1; label: 5'-FAM; single strand.

In another data set the target is T4, Lsm2-8 Lsm3-R21A (Saccharomyces cerevisiae, UniProt P38203;P57743;P40070;P40089;Q06406;P53905;P47093 …, R21A).
T4 sequence 1: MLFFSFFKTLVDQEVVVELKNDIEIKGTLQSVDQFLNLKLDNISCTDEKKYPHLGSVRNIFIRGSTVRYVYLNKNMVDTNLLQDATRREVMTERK
T4 sequence 2: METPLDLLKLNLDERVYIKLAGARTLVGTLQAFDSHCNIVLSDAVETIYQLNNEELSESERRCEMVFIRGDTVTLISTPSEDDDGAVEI
T4 sequence 3: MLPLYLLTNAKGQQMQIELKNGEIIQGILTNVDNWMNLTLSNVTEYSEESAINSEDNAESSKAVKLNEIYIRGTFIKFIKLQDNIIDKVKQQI
T4 sequence 4: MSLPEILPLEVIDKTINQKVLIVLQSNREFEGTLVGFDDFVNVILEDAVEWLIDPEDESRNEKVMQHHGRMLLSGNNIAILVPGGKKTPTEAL
T4 sequence 5: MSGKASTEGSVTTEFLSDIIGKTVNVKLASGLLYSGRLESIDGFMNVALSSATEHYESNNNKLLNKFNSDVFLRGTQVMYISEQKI
T4 sequence 6: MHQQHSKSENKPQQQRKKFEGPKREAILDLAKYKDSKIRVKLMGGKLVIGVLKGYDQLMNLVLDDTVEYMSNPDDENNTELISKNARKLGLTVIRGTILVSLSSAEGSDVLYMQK
T4 sequence 7: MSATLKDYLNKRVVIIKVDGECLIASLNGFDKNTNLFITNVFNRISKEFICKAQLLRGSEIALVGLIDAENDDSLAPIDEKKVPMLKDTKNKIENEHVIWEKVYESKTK
The conditions noted are these: protein: recombinant; tags: as P1; copies: 1;1;1;1;1;1;1; label: 5'-FAM; single strand.

The target in the next data set is T5, Lsm2-8 Lsm2-K20A (Saccharomyces cerevisiae, UniProt P38203;P57743;P40070;P40089;Q06406;P53905;P47093 …, K20A).
T5 sequence 1: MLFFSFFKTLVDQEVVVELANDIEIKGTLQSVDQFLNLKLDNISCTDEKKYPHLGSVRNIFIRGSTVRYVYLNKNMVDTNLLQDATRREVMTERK
T5 sequence 2: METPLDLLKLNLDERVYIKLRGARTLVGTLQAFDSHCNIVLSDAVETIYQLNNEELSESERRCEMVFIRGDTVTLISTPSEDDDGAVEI
T5 sequence 3: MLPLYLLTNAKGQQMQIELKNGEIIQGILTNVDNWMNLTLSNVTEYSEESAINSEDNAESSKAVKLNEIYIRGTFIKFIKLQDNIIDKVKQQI
T5 sequence 4: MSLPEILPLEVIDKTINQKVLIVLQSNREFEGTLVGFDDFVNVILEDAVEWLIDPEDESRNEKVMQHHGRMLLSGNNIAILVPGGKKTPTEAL
T5 sequence 5: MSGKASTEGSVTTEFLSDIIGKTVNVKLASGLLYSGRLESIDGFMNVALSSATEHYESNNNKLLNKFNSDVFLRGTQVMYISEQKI
T5 sequence 6: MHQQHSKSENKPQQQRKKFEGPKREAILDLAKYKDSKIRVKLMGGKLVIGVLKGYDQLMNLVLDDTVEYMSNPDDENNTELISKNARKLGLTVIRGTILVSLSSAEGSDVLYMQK
T5 sequence 7: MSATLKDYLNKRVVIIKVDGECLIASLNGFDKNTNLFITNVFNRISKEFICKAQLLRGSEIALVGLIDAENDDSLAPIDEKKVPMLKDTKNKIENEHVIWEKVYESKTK
The conditions noted are these: protein: recombinant; tags: as P1; copies: 1;1;1;1;1;1;1; label: 5'-FAM; single strand.

A further data set concerns the target T6, Lsm2-8 Lsm3-R21E (Saccharomyces cerevisiae, UniProt P38203;P57743;P40070;P40089;Q06406;P53905;P47093 …, R21E).
T6 sequence 1: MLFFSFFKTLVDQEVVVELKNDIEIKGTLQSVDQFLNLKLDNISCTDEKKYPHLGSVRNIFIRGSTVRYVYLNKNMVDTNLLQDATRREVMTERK
T6 sequence 2: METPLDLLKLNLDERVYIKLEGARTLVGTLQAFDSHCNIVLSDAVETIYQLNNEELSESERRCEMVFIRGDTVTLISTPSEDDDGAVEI
T6 sequence 3: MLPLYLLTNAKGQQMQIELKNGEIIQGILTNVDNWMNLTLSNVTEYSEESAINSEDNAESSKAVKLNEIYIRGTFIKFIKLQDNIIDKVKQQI
T6 sequence 4: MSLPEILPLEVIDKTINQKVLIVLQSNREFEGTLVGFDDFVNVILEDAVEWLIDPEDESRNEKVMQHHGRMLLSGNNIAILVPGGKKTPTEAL
T6 sequence 5: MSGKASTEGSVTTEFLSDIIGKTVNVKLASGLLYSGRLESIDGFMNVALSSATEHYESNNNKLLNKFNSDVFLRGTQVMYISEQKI
T6 sequence 6: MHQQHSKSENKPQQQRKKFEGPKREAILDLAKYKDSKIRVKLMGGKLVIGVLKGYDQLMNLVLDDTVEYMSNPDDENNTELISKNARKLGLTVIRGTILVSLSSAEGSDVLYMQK
T6 sequence 7: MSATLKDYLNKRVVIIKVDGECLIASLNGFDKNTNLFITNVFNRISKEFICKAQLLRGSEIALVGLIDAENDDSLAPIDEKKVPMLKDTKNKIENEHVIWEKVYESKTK
The conditions noted are these: protein: recombinant; tags: as P1; copies: 1;1;1;1;1;1;1; label: 5'-FAM; single strand.

As for UUUCGUUUUU (ssRNA, none (3' phosphate removed with CIP)) [U6 104-113 2',3'-cis diol], the equilibrium dissociation constant (Kd) (usually the constant that tells how readily two partners part at equilibrium) worked out at 1870 ± 370 nM in the data set with Lsm2-8 Lsm2-K20E; 277 ± 32 nM with Lsm2-8 Lsm8-delC; 37.4 ± 4.5 nM in the data set with Lsm2-8 construct 2 (WT); 40.8 ± 3.3 nM with Lsm2-8 Lsm3-R21A; 522 ± 48 nM with Lsm2-8 Lsm2-K20A; 195 ± 27 nM with Lsm2-8 Lsm3-R21E.
